Earlier results in paper PMC5427998 (Chemical Science, 2017).
Bridges are numbered along the chain shown (N, C = ends). Where no end group is shown, it is not given here.

Conditions: 95 °C

For “Microcin J25 (GGAGHVPEYFVGIGTPISFYG; lactam N-8; UniProt Q9X2V7 38-58, looked up) [MccJ25]”, the “thermal denaturation / retention of threaded structure” value is given as “did not denature”.
